Common to all, as to test: EMSA
In data set [1] the target is Dicer S839A (Homo sapiens, UniProt Q9UPY3 1-1922, S839A).
In data set [2] the target is T1, Dicer S839F (Homo sapiens, UniProt Q9UPY3 1-1922, S839F).
Data set [3] deals with T1, Dicer S839F. The source holds these as a separate data set.

Where two headings read alike, the source gives them in different places.

T1 sequence (Q9UPY3 whole entry S839F): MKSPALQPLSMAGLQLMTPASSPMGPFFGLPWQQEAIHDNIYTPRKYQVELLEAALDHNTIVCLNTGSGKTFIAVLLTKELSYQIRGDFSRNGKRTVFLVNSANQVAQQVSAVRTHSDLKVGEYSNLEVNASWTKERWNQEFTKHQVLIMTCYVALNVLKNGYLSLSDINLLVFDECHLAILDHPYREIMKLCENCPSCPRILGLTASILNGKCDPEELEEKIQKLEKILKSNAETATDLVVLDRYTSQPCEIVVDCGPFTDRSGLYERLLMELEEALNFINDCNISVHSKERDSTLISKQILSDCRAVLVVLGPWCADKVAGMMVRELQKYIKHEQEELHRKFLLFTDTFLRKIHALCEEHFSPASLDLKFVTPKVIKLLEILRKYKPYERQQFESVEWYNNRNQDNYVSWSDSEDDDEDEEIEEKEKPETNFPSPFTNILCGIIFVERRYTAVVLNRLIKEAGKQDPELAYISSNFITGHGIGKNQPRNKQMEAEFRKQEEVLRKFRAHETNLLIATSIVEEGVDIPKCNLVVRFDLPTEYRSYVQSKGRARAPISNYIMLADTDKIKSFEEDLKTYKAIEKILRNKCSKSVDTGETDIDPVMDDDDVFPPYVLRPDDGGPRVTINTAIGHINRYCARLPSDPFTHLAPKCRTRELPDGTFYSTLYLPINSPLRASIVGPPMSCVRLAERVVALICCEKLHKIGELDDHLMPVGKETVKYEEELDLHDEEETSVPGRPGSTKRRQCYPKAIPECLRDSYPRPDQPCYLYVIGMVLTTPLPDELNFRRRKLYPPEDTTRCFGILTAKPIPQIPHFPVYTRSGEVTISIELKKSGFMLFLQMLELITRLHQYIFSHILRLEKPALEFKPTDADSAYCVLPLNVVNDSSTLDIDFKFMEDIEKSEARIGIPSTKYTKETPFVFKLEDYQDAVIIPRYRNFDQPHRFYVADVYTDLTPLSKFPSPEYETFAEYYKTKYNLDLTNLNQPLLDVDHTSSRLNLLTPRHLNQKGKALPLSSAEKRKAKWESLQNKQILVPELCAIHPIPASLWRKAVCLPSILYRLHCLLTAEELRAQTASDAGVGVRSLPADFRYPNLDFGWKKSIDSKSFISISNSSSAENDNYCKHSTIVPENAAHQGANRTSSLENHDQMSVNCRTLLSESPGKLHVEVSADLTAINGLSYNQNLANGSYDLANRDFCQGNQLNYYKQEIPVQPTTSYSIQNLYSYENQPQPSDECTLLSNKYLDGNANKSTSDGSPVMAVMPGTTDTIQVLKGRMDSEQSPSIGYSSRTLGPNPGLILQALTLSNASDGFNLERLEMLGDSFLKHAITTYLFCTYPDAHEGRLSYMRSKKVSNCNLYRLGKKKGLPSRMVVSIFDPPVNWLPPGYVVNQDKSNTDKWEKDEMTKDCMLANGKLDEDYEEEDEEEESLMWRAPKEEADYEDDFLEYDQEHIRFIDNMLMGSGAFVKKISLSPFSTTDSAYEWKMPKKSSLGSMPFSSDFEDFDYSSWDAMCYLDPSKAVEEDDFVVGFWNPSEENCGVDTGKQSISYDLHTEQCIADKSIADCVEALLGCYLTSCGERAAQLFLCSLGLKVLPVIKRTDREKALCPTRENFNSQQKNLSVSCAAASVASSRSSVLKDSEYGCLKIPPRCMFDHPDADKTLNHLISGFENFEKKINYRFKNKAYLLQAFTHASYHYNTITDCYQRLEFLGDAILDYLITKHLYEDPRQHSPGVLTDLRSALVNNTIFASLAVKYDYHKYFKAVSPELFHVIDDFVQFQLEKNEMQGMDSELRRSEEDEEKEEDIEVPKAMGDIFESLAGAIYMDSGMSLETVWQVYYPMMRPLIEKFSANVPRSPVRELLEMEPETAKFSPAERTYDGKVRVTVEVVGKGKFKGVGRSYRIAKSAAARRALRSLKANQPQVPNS
Dicer S839A, sequence (Q9UPY3 whole entry S839A): as the sequence (Q9UPY3 whole entry S839F) above, with F839A counted along it

B1: pre-miR-21 (structured_RNA)
RNA: UAGCUUAUCAGACUGAUGUUGACUGUUGAAUCUCAUGGCAACACCAGUCGAUGGGCUGUC
modifications: 5' phosphate
Consider B1, for which the results for the binding result in data set [1] and in data set [2] were “binds” and “no binding”, respectively.

B2: snord37 (structured_RNA)
RNA: AUUCGUGAUGACUGAUCAUUUCUUCACUUUGACCAGAUGUCUACUGAAGAAAGCCUGCGUCUGAGG
On to B2, for which the binding result in data set [3] is “binds”.

For the origin of these results see paper PMC11467860.
